We go through 1 variant from IntAct's records for PubMed 19361433.

First the molecules themselves.
B1: Probable ATP-dependent transporter SufC (Escherichia coli (strain K12)), P77499 (parent)
chain: MLSIKDLHVSVEDKAILRGLSLDVHPGEVHAIMGPNGSGKSTLSATLAGREDYEVTGGTVEFKGKDLLALSPEDRAGEGIFMAFQYPVEIPGVSNQFFLQTALNAVRSYRGQETLDRFDFQDLMEEKIALLKMPEDLLTRSVNVGFSGGEKKRNDILQMAVLEPELCILDESDSGLDIDALKVVADGVNSLRDGKRSFIIVTHYQRILDYIKPDYVHVLYQGRIVKSGDFTLVKQLEEQGYGWLTEQQ
partner: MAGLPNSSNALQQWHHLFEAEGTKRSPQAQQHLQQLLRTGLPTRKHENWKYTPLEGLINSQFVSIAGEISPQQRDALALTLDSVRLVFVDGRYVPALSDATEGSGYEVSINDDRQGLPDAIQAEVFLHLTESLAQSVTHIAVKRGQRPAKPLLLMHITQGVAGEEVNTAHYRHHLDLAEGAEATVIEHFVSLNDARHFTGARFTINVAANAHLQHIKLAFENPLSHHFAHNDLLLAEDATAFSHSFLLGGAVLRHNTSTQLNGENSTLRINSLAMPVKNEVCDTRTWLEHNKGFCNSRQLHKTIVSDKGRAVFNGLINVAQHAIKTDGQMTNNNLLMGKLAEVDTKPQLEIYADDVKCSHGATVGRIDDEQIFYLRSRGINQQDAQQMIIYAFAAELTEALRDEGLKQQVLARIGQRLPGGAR

The assay covers variants of B1. Conditions: with sufd_ecoli sufD.
As to MLSIKDLHVSVEDKAILRGLSLDVHPGEVHAIMGPNGSGKSTLSATLAGREDYEVTGGTVEFKGKDLLALSPEDRAGEGIFMAFQCPVEIPGVSNQFFLQTALNAVRSYRGQETLDRFDFQDLMEEKIALLKMPEDLLTRSVNVGFSGGEKKRNDILQMAVLEPELCILDESDSGLDIDALKVVADGVNSLRDGKRSFIIVTHYQRILDYIKPDYVHVLYQGRIVKSGDFTLVKQLEEQGYGWLTEQQ [Y86C], the “effect of a mutation on the interaction” value is on record as “increasing interaction”.
